The text below walks through data of article PMC11612273 (2024).

One assay has as its target T1, GST-PSKR1JK (tomato (Solanum lycopersicum), UniProt A0A3Q7E8N4 1-1013, labeled with RED-NHS).
T1 chain: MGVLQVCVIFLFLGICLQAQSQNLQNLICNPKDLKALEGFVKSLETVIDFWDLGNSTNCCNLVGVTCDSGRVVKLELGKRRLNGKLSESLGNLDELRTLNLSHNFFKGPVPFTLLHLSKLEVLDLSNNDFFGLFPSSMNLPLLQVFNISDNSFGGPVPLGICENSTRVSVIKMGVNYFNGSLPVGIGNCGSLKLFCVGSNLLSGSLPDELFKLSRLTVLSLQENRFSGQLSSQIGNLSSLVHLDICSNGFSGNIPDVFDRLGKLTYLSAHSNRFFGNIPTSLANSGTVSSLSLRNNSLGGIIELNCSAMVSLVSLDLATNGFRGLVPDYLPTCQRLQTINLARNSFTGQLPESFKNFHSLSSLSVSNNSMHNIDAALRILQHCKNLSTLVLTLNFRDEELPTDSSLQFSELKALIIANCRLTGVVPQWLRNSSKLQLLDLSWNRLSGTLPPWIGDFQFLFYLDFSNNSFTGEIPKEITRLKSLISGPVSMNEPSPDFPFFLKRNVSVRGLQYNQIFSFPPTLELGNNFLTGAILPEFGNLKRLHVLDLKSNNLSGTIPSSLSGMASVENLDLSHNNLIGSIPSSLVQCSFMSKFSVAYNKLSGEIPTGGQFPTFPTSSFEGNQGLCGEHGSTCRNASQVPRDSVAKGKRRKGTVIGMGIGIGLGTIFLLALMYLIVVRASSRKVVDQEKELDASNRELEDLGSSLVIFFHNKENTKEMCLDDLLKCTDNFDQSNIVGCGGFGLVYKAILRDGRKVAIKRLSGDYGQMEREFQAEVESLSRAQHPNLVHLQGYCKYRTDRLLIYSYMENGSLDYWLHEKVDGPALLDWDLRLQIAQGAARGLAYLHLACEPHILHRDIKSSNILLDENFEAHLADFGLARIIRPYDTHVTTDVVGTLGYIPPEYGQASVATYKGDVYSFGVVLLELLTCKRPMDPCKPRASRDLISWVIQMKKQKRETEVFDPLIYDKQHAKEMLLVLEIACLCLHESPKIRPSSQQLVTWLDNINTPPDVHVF
In words: MST.

The target of another assay is T2, GST-BRAKJK (tomato (Solanum lycopersicum), labeled with RED-NHS).
T2 chain: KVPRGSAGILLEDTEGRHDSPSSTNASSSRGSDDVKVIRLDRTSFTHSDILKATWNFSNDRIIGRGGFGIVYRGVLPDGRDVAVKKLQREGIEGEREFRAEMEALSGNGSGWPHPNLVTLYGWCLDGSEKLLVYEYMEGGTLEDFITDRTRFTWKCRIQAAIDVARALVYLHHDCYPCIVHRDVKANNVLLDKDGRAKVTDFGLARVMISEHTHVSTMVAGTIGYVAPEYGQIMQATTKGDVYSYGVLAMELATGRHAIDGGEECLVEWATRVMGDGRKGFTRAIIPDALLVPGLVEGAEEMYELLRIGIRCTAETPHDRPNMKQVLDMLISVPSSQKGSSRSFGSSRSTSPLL
The assay can be described thus: MST.

B1: BRAKJK^Y1048F (phospho-dead) (domain or fragment)
chain: KVPRGSAGILLEDTEGRHDSPSSTNASSSRGSDDVKVIRLDRTSFTHSDILKATWNFSNDRIIGRGGFGIVYRGVLPDGRDVAVKKLQREGIEGEREFRAEMEALSGNGSGWPHPNLVTLYGWCLDGSEKLLVYEYMEGGTLEDFITDRTRFTWKCRIQAAIDVARALVYLHHDCYPCIVHRDVKANNVLLDKDGRAKVTDFGLARVMISEHTHVSTMVAGTIGYVAPEYGQIMQATTKGDVYSYGVLAMELATGRHAIDGGEECLVEWATRVMGDGRKGFTRAIIPDALLVPGLVEGAEEMFELLRIGIRCTAETPHDRPNMKQVLDMLISVPSSQKGSSRSFGSSRSTSPLL
Regarding B1, the affinity with GST-PSKR1JK, expressed as Kd, was 6.9 µM.

B2: BRAKJK^T1027A (phospho-dead; printed BRAKJK^T1024A in the results) (domain or fragment)
chain: KVPRGSAGILLEDTEGRHDSPSSTNASSSRGSDDVKVIRLDRTSFTHSDILKATWNFSNDRIIGRGGFGIVYRGVLPDGRDVAVKKLQREGIEGEREFRAEMEALSGNGSGWPHPNLVTLYGWCLDGSEKLLVYEYMEGGTLEDFITDRTRFTWKCRIQAAIDVARALVYLHHDCYPCIVHRDVKANNVLLDKDGRAKVTDFGLARVMISEHTHVSTMVAGTIGYVAPEYGQIMQATTKGDVYSYGVLAMELATGRHAIDGGEECLVEWATRVMGDGRKGFARAIIPDALLVPGLVEGAEEMYELLRIGIRCTAETPHDRPNMKQVLDMLISVPSSQKGSSRSFGSSRSTSPLL
In the assay with GST-PSKR1JK, B2 came in with a Kd of 2.43 µM.

B3: PSKR1JK^Y843F (phospho-mutated) (domain or fragment)
chain: VRASSRKVVDQEKELDASNRELEDLGSSLVIFFHNKENTKEMCLDDLLKCTDNFDQSNIVGCGGFGLVYKAILRDGRKVAIKRLSGDYGQMEREFQAEVESLSRAQHPNLVHLQGYCKYRTDRLLIYSYMENGSLDYWLHEKVDGPALLDWDLRLQIAQGAARGLAFLHLACEPHILHRDIKSSNILLDENFEAHLADFGLARIIRPYDTHVTTDVVGTLGYIPPEYGQASVATYKGDVYSFGVVLLELLTCKRPMDPCKPRASRDLISWVIQMKKQKRETEVFDPLIYDKQHAKEMLLVLEIACLCLHESPKIRPSSQQLVTWLDNINTPPDVHVF
B3 registered a Kd in the assay with GST-BRAKJK of 1.8 µM.

B4: PSKR1JK, wild type (ligand of the MST) (domain or fragment)
chain: VRASSRKVVDQEKELDASNRELEDLGSSLVIFFHNKENTKEMCLDDLLKCTDNFDQSNIVGCGGFGLVYKAILRDGRKVAIKRLSGDYGQMEREFQAEVESLSRAQHPNLVHLQGYCKYRTDRLLIYSYMENGSLDYWLHEKVDGPALLDWDLRLQIAQGAARGLAYLHLACEPHILHRDIKSSNILLDENFEAHLADFGLARIIRPYDTHVTTDVVGTLGYIPPEYGQASVATYKGDVYSFGVVLLELLTCKRPMDPCKPRASRDLISWVIQMKKQKRETEVFDPLIYDKQHAKEMLLVLEIACLCLHESPKIRPSSQQLVTWLDNINTPPDVHVF
On to B4, for which the affinity with GST-BRAKJK, expressed as Kd, was 0.171 µM.

B5: PSKR1JK^T890A (phospho-mutated) (domain or fragment)
chain: VRASSRKVVDQEKELDASNRELEDLGSSLVIFFHNKENTKEMCLDDLLKCTDNFDQSNIVGCGGFGLVYKAILRDGRKVAIKRLSGDYGQMEREFQAEVESLSRAQHPNLVHLQGYCKYRTDRLLIYSYMENGSLDYWLHEKVDGPALLDWDLRLQIAQGAARGLAYLHLACEPHILHRDIKSSNILLDENFEAHLADFGLARIIRPYDTHVTADVVGTLGYIPPEYGQASVATYKGDVYSFGVVLLELLTCKRPMDPCKPRASRDLISWVIQMKKQKRETEVFDPLIYDKQHAKEMLLVLEIACLCLHESPKIRPSSQQLVTWLDNINTPPDVHVF
As to B5, in the assay with GST-BRAKJK, the Kd stood at 2.27 µM.

B6: BRAKJK, wild type (ligand of the MST) (domain or fragment)
chain: MPGRLVCGDSIETDKQLLLNLKSFLKEQNPVDKGFKYNHWNPTDLSPCRWPGISCTTSINRVTGIDLSESNLAGKLFNNFSAMTELNSLDLSKNTFSESIPSDLGWCRNLKFLNLSHNIIVGDLNLTGLNKLEVLDLTMNRIHGLTIPEICDNLAVANISNNNFTSESGFEFSHCKKLKYLDLSYNYLTGNLSFGLDMLNMFSASHNNLSGSLPSWIFTQNCSLQGLDLSENRFFGELPTSIANCKRLVELNLWGNSFSGSIPRGIGSVHSLKELCLGSNNFSSDVPDTLSGLNKLVFLDLSRNNFGGEIQEIFGQLTQVRFLVLHGNSYTGGIVSSGIPNLVNLSRLDLSDNHFSGPLPVEISEMKGLEFLILAHNQFSGNIPSEYGDLTALQAVDLSSNRINGSIPPSFGKLRSLLWLMLANNSLSGEIPSELGNCSSLLWLNLANNQLTGPIPPQLASIGADPMLTFLLNRGKEKLTASPGDCFAMRRWIPADYPPFSFIYPLLTGKSCRILGDKLFMGDGLMPLCEPGSNVRKNQVPGYIQLSDNKLSGEIPPEISNMKKMSMMHLGANEFSGRLPSEIGQLHLVVLNVSQNKFSGEIPKQIGHLKCLLNLDLSFNNFSGPFPVSFSNLHDLSKFNISYNQYIYGAVPETGQLLTFDKSSFLGNPLLRLPSFMHNSKNNTERNTNDTHKKPKKVGALLVIVVLVLAFLVCGVMSLVVCLLIKVPRGSAGILLEDTEGRHDSPSSTNASSSRGSDDVKVIRLDRTSFTHSDILKATWNFSNDRIIGRGGFGIVYRGVLPDGRDVAVKKLQREGIEGEREFRAEMEALSGNGSGWPHPNLVTLYGWCLDGSEKLLVYEYMEGGTLEDFITDRTRFTWKCRIQAAIDVARALVYLHHDCYPCIVHRDVKANNVLLDKDGRAKVTDFGLARVMISEHTHVSTMVAGTIGYVAPEYGQIMQATTKGDVYSYGVLAMELATGRHAIDGGEECLVEWATRVMGDGRKGFTRAIIPDALLVPGLVEGAEEMYELLRIGIRCTAETPHDRPNMKQVLDMLISVPSSQKGSSRSFGSSRSTSPLL
B6 displayed a Kd with GST-PSKR1JK of 0.196 µM.

In general, Kd refers to the constant that tells how readily two partners part at equilibrium.
